US20230242902A1, “A HIGHLY ERROR-PRONE […] R[…] FOR TARGETED CONTINUOUS EVOLUTION IN VIVO” (The Regents of the University of California, priority 2017, published 2023)
Positions count from the first letter of the chain named. In names and notes the source's numbering stands.

B1: G410F: TP-DNAP1 variant (protein)
chain: MDYKDKALNDLRNVYADFDSLPLDFRQILIKDRATLLQKEDVEKKILERQEDAKKYAEYLKQSEIPERISLPNIKRHKGVSISFEETSEDMVLEPRPFIFDGLNIRCFRRETIFSLKNKILNMVKESSSFKNVSRQSVSFMYFKIFNKGKVIASTKSVNIYEDKIDERLEDLCNNFDDVLKKIIDVTYGYESLFVSETYSYVIFYAKSIYFPQPRCVNNWGNNIPNILTFDSFKLFTANKNNVSCIKQCSRFLWQKDFNTLEEMIEYKNGNICIVTPQLHINDVRDIKSFNDIRLYSESPIKTFSVIDNTITYLFYFKEHLGVIFNITKSRHDRRVTKFSPLSKFSDVKNITVCFDIESYFDPEKESNQVNIPFICCASIIYNKVIGNIVDFEGRDCVAQMIEYVVDICFELNISSVELIAHNGGGYDFHYILSSMYNPAAIKNILIRNNSFISFNFAHDGVKFSVKDSYSFLLCSLANASKAFLNEETFKKTDFPHHDLKTADDLYKVYKEWSSVNTEINHVVEKEKLLITSEHIVNFTKNDKSKTLIEWSKDYCRNDVLVLSKVWLEFKNAVEDIFNCELVDQTMTLAGLSYKLFQANMPFDVELRHPNKEDYFNMREALIGGRCISVNGIYKDVLCLDVKSLYPASMAFYDQPYGSFKRVSSRPKDELGIYYVRVTPNRNNKSNFFPIRSHNKITYNNFEESTYIAWYTNVDIDIGLSEGHNIEYIPFDSYGNIGYSWSKKGKIFEKYIKDVLYKLKIKYEKQNNKVKRNVIKIIMNSLWGKFAQKWVNFEYFIKSEDDIDFESEEAYKIWDTDFMLIKKIKESTYSSKPIQNGVFTLSWARYHMKSIWDAGAKEGAECIYSDTDSIFVHKEHFKKNAKFMLNGLKVPIIGSEVGQLELECEFDKLLCAGKKQYMGFYTYFQDGKPCIKEKKRFKGIPSNYIIPELYAHLLSGADKEAKIQFLKFRREWGSVKGYIENKTVKAT
B2: L412V: TP-DNAP1 variant (protein)
chain: B1 chain with F410G, L412V
B3: G410S: TP-DNAP1 variant (protein)
chain: B1 chain with F410S
B4: G426T: TP-DNAP1 variant (protein)
chain: B1 chain with F410G, G426T
B5: I414F: TP-DNAP1 variant (protein)
chain: B1 chain with F410G, I414F
B6: S415V: TP-DNAP1 variant (protein)
chain: B1 chain with F410G, S415V
B7: E411N: TP-DNAP1 variant (protein)
chain: B1 chain with F410G, E411N
B8: E411G: TP-DNAP1 variant (protein)
chain: B1 chain with F410G, E411G
B9: K612A: TP-DNAP1 variant (protein)
chain: B1 chain with F410G, K612A
B10: N291M: TP-DNAP1 variant (protein)
chain: B1 chain with N291M, F410G
B11: E411L: TP-DNAP1 variant (protein)
chain: B1 chain with F410G, E411L
B12: E411A: TP-DNAP1 variant (protein)
chain: B1 chain with F410G, E411A
B13: N611P, V897V: TP-DNAP1 variant (protein)
chain: B1 chain with F410G, N611P
B14: G410T: TP-DNAP1 variant (protein)
chain: B1 chain with F410T
B15: G410W: TP-DNAP1 variant (protein)
chain: B1 chain with F410W
B16: K612V: TP-DNAP1 variant (protein)
chain: B1 chain with F410G, K612V
B17: N413H: TP-DNAP1 variant (protein)
chain: B1 chain with F410G, N413H
B18: K612Q: TP-DNAP1 variant (protein)
chain: B1 chain with F410G, K612Q
B19: K612S: TP-DNAP1 variant (protein)
chain: B1 chain with F410G, K612S
B20: E411D: TP-DNAP1 variant (protein)
chain: B1 chain with F410G, E411D
B21: N291K: TP-DNAP1 variant (protein)
chain: B1 chain with N291K, F410G
B22: E411S: TP-DNAP1 variant (protein)
chain: B1 chain with F410G, E411S
B23: N611Q: TP-DNAP1 variant (protein)
chain: B1 chain with F410G, N611Q
B24: E411K: TP-DNAP1 variant (protein)
chain: B1 chain with F410G, E411K
B25: N413T: TP-DNAP1 variant (protein)
chain: B1 chain with F410G, N413T
B26: G461K: TP-DNAP1 variant (protein)
chain: B1 chain with F410G, G461K
B27: E411R: TP-DNAP1 variant (protein)
chain: B1 chain with F410G, E411R
B28: N413E: TP-DNAP1 variant (protein)
chain: B1 chain with F410G, N413E
B29: G410Y: TP-DNAP1 variant (protein)
chain: B1 chain with F410Y
B30: D460G: TP-DNAP1 variant (protein)
chain: B1 chain with F410G, D460G

System: p1
Experiment: p1 copy number by p1-encoded mKate2 fluorescence
Assay type: cell-based, S. cerevisiae
Conditions: OR-Y24, measured in triplicate
Procedure: A calibration curve was established to correlate p1 copy number, determined via quantitative PCR (qPCR), with fluorescence of p1-encoded mKate2 (Table 1). Five TP-DNAP1 variants representing a wide range of copy numbers were transformed into ORY24 and passaged until w.t. p1 was displaced. The five OR-Y24 strains were grown to saturation, diluted 1:10,000 to mimic p1 fluctuation tests, and grown in triplicate 100 μL cultures and duplicate 40 mL cultures. 100 μL saturated cultures were subject to fluorescence measurement of mKate2 (ex/em=561 nm/620 nm, bandwidth=15 nm) on a flow cytometer (Invitrogen Attune NxT). Whole-cell DNA extracts were prepared from 40 mL cultures and used as templates for qPCR measurement of p1-encoded leu2 (Q180*), as described previously (Ravikumar et al., 2014). p1-encoded LEU2 was PCR amplified with qPCR-Leu2F and qPCR Leu2R; and genomic LEU3 was PCR amplified with qPCR-Leu3F and qPCR-Leu3R using SyBR Green (Fisher Scientific) master mix.
To assay p1 copy number for large-scale p1 fluctuation tests, additional replicates of OR-Y24 strains were grown from the 1:10,000 dilution in triplicate and saturated cultures were subject to fluorescence measurement via flow cytometry. Fluorescence measurements were converted to copy number with the linear calibration curve.
To assay relative p1 copy number for small-scale p1 fluctuation tests, an additional 200 μL culture of OR-Y24 strains were grown from the 1:10,000 dilution. 200 μL saturated cultures were subject to an OD600 measurement and fluorescence measurement of mKate2 (ex/em=588 nm/633 nm), using a microplate reader (TECAN Infinite M200 PRO). A linear relationship was assumed between p1 copy number and OD600-normalized mKate2 fluorescence. Copy numbers were calculated from normalization to a w.t. TP-DNAP1 control.
For a few large-scale p1 fluctuation tests, p1 copy number was assayed by the method of small scale p1 fluctuation tests (i.e. microplate reader measurement). For these experiments, mutant TP-DNAP1 p1 copy numbers were calculated by normalization to a w.t. TP-DNAP1 control. The copy number of this control was assumed to be the average w.t. TP-DNAP1 copy number from all large-scale p1 fluctuation tests that used flow cytometry measurements.
TP-DNAP1 plasmids were isolated from these strains and subject to Sanger sequencing. 210 unique variants were identified and the corresponding plasmids were re-transformed into OR-Y24. Transformed strains were passaged in SC-UH until w.t. p1 was displaced, and subject to p1 copy number measurement in triplicate. Four high copy variants were directly subject to qPCR measurements for validation. To test the suppressor activity of the G410H mutation, which yields increased p1 copy number, this amino acid change was added to several low-activity TP-DNAP1 variants. p1 copy number was similarly assayed for these strains.

Row | Molecule | Mean fold-increase over w.t. (p1 copy number) [fold]
1 | B1 | 2.66
2 | B2 | 2.21
3 | B3 | 2.27
4 | B4 | 1.22
5 | B5 | 1.29
6 | B6 | 1.44
7 | B7 | 1.9
8 | B8 | 1.54
9 | B9 | 1.94
10 | B10 | 2.28
11 | B11 | 2.22
12 | B12 | 2.08
13 | B13 | 2.04
14 | B14 | 2.57
15 | B15 | 2.5
16 | B16 | 1.85
17 | B17 | 2.2
18 | B18 | 2.04
19 | B19 | 1.75
20 | B20 | 2.32
21 | B21 | 1.66
22 | B22 | 1.52
23 | B23 | 1.92
24 | B24 | 2.39
25 | B25 | 1.76
26 | B26 | 2.15
27 | B27 | 2.07
28 | B28 | 2.62
29 | B29 | 2.73
30 | B30 | 1.63
